From patent US20250346668A1 (GENOR BIOPHARMA, published 2025)
Where a chain is given by its changes, count along the chain named.

B1: hAb001-21 (antibody, V domains shown)
VH: QVQLVQSGAEVKKPGASVKVSCKASGYSFTNYYMHWVRQAPGQRLEWIGWTYPGNNNIKYNEKFKGRVTITADTSASTAYMELSSLRSEDTAVYYCARDGYGYYFFDYWGQGTLVTVSS
VL: DIVMTQSPDSLAVSLGERATINCKSSQSLLNNRTRKNYLAWYQQKPGQPPKLLIYWASTRESGVPDRFSGSGSGTDFTLTISSLQAEDVAVYYCKQSYTLRTFGGGTKLEIK
notes: Humanized; constant regions not specified
B2: hAb001-22 (antibody, V domains shown)
VH: B1 VH
VL: B1 VL with S69T
notes: as for B1
B3: hAb001-23 (antibody, V domains shown)
VH: B1 VH
VL: B1 VL with I21M, N22S
notes: as for B1
B4: hAb001-26 (antibody, V domains shown)
VH: B1 VH with V68A
VL: B1 VL with S69T
notes: as for B1
B5: hAb001-27 (antibody, V domains shown)
VH: B1 VH with V68A
VL: B1 VL with I21M, N22S
notes: as for B1
B6: hAb001-28 (antibody, V domains shown)
VH: B1 VH with V68A
VL: B1 VL with I21M, N22S, S69T
notes: as for B1
B7: CAb001 (antibody, V domains shown)
VH: QVQLQQSGPELVKPGASVKISCKASGYSFTNYYMHWVKQRPGQGLEWIGWTYPGNNNIKYNEKFKGKATLTADTSSSTAYMQLSSLTSEDSAVYYCARDGYGYYFFDYWGQGIILTVSS
VL: DIVMSQSPSSLAVSAGEKVTMSCKSSQSLLNNRTRKNYLAWYQQKPGQSPKLLIYWASTRESGVPDRFTGSGSGTDFTLTISSVQAEDLAIYYCKQSYTLRTFGGGTKLAIK
notes: Chimeric: mouse variable regions linked to human light and heavy constant regions; constant regions not specified
B8: hAb007-30 (antibody, V domains shown)
VH: QVQLVQSGAEVKKPGASVKVSCKASGSTFTDNYIHWVKQAPGQRLEWIGWIYPGSVNIKYNEKFKDRATITADTSATTAYMELSSLRSEDTAVYYCARDISRYYFDYWGQGTTVTVSS
VL: B1 VL with N32S, S69T, Y98F, T99I
notes: as for B1
B9: hAb007-31 (antibody, V domains shown)
VH: B8 VH
VL: B1 VL with I21M, N32S, Y98F, T99I
notes: as for B1
B10: hAb007-32 (antibody, V domains shown)
VH: B8 VH
VL: B1 VL with I21M, N32S, S69T, Y98F, T99I
notes: as for B1
B11: mAb001 (antibody, V domains shown)
VH: B7 VH
VL: B7 VL
notes: Mouse hybridoma antibody; The variable regions are printed as CAb001 VH/VL
B12: mAb007 (antibody, V domains shown)
VH: QVQLQQSGPELVKPGASVKISCKASGSTFTDNYIHWVKQRPGQGLEWIGWIYPGSVNIKYNEKFKDKATLTADTSSTTAYMQLSSLSSEDSAIYYCARDISRYYFDYWGQGTTLTVSS
VL: B7 VL with K18R, S22N, N32S, I91V, Y98F, T99I
notes: Mouse hybridoma antibody; The variable regions are printed as CAb007 VH/VL
B13: mAb008 (antibody, V domains shown)
VH: QVQLQQSGAELARPGASVKMSCKTSGYTFTDYTVNWVKQRPGQGLEWIGYINPFNSYTKYNQKFKDKATLTADKSSSTAYMQLSSLTSEDSAVYFCANSVSTYWGQGTTLTVSS
VL: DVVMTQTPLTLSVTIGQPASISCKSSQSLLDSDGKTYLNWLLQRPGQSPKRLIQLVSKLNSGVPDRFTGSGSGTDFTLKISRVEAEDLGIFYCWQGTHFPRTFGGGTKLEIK
notes: Mouse hybridoma antibody
B14: mAb009 (antibody, V domains shown)
VH: B13 VH with A12T, T24A, V34I, N35H, N55S, S56D, M81I, S84N, F95Y, T102I
VL: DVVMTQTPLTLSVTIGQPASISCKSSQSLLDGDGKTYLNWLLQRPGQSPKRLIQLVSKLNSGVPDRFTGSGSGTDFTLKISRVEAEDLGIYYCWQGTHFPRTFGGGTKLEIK
notes: Mouse hybridoma antibody

Molecular target: T1, CD3 on Jurkat cells (human)
T1 construct: native, on the surface of Jurkat cells; The sheets print only 'Jurkat'; also called human CD3; TCR/CD3 complex on the human T cell line Jurkat
Test: FACS on Jurkat cells, Alexa 488 secondary antibody, MFI [a]
Procedure: Jurkat cells were amplificatorily cultured to 3×10⁶/ml in a T-175 cell culture flask, the culture medium was removed by centrifugation, and the cells were washed twice with PBS buffer (purchased from Invitrogen). After cell counting, the cells were diluted to 2×10⁶ cells/ml with PBS buffer, added with 1% BSA blocking solution, where the percentage was a mass percentage, incubated on ice for 30 minutes, and then washed twice with PBS buffer by centrifugation. The collected cells were suspended to 2×10⁶ cells/mL with FACS buffer (PBS+1% BSA, where the percentage was a mass percentage), and added to a 96-well FACS reaction plate at 100 μl per well, and samples of the purified CD3 antibodies obtained in Example 4 to be tested were added at 100 μl per well, and incubated at 4° C. for 2 hours. The plate was washed twice with FACS buffer by centrifugation, added with 100 μl per well of fluorescent (Alexa 488) labeled secondary antibody (purchased from Jackson), and incubated at 4° C. for 1 hour. After washing 3 times by centrifugation with FACS buffer, the cells were suspended with 100 μl of FACS buffer, and detected and analyzed using BD FACS LSRFortessa (purchased from BD). The results are shown in FIG. 5, where the IgG control is human IgG1 (hIgG).

Binder | EC50 (read off the curve)
B1 | ~0.3 nM
B2 | ~0.3 nM
B3 | ~0.3 nM
B4 | ~0.3 nM
B5 | ~0.3 nM
B6 | ~0.3 nM
B7 | ~0.3 nM

Molecular target: T2, human CD3e/g antigen (ACRO, catalog number CDG-H52W5) (human, UniProt P07766 23-126; P09693 23-116)
T2 construct: Bought reagent used as the Biacore analyte; also called hCD3e/g
Test: SPR (Biacore 8K), antibody captured via anti-human Fc
Procedure: The equilibrium dissociation constant of binding of CD3 antibodies to human CD3e/g antigen (purchased from ACRO, catalog number CDG-H52W5) was determined by kinetic binding method using Biacore 8K (GE) system. Through the capture method, the carboxylated dextran surface of CM5 chip was first activated with NHS (N-hydroxysuccinimide) and EDC (1-(3-dimethylaminopropyl)-3-ethylcarbodiimide hydrochloride), and then added with an anti-human IgG (Fc) antibody, the free amino group of which could form an amide bond with the activated carboxyl group, thereby being fixed on the chip surface. The anti-human IgG (Fc) antibody could bind to the Fc end of CD3 antibodies to capture the antibodies, and then a series of concentrations of antigen were added to obtain the binding and dissociation curves of antibody and antigen, and the corresponding kinetic constants were calculated by Biacore Evaluation software, as shown in the table below.

Binder | Kd | koff | kon
B1 | 16.8 nM | 0.00669 s⁻¹ | 398000 M⁻¹ s⁻¹
B2 | 20.4 nM | 0.00848 s⁻¹ | 416000 M⁻¹ s⁻¹
B3 | 17.4 nM | 0.00696 s⁻¹ | 401000 M⁻¹ s⁻¹
B4 | 17.4 nM | 0.00673 s⁻¹ | 386000 M⁻¹ s⁻¹
B5 | 21 nM | 0.00823 s⁻¹ | 391000 M⁻¹ s⁻¹
B6 | 20.4 nM | 0.00745 s⁻¹ | 365000 M⁻¹ s⁻¹
B7 | 23.1 nM | 0.00616 s⁻¹ | 267000 M⁻¹ s⁻¹
B8 | 7.11 nM | 0.00316 s⁻¹ | 445000 M⁻¹ s⁻¹
B9 | 5.26 nM | 0.00225 s⁻¹ | 427000 M⁻¹ s⁻¹
B10 | 7.62 nM | 0.0032 s⁻¹ | 419000 M⁻¹ s⁻¹

Molecular target: T3, human CD3e/d protein (Sinobiological, CAT: CT038-H2508H-B) (human, UniProt P07766 23-126; P04234 22-105)
T3 construct: Bought reagent; also called hCD3e/d
Test: ELISA, coated hCD3e/d
Procedure: (§1) Human CD3e/g protein, cynomolgus monkey CD3e/g protein (sequences shown in Table 1) or human CD3e/d protein was diluted with PBS to a final concentration of 5.0 μg/mL, and then added with 100 μl per well to a 96-well ELISA plate. The plate was sealed with plastic film and incubated overnight at 4° C. The plate was washed twice with plate washing solution [PBS+0.01% (v/v) Tween 20] on the next day, and was added with blocking solution [PBS+0.01% (v/v) Tween 20+1% (w/w) BSA] to block at room temperature for 2 hours. The blocking solution was poured off, and 100 μl per well of the purified CD3e/g antibody obtained in Example 2 was added. After incubation at 37° C. for 2 hours, the plate was washed 3 times with plate washing solution [PBS+0.01% (v/v) Tween20]. After adding HRP (horseradish peroxidase) labeled secondary antibody (purchased from Sigma), the plate was incubated at 37° C. for 2 hours, washed 3 times with plate washing solution [PBS+0.01% (v/v) Tween 20]. After adding 100 μl per well of TMB substrate and incubating at room temperature for 30 minutes, 100 μl per well of stop solution (1.0N HCl) was added. […] FIG. 2 and Table 3 show the binding activities of CD3e/g antibodies to hCD3e/g as detected by ELISA, and FIG. 3 and Table 4 show the binding activities of CD3e/g antibodies to cyno CD3e/g as detected by ELISA, wherein the IgG control is mouse IgG, and the data in the tables are OD_{450 nm} values. Among them, HIT3a was purchased from BD pharmigen with a catalog number 555336; SP34 was purchased from BD pharmigen with a catalog number 551916. OKT3 was purchased from Biolegend.

Binder | EC50 | Emax (OD) | OD450 nm at 0.00128 nM | OD450 nm at 0.0064 nM | OD450 nm at 0.032 nM | OD450 nm at 0.16 nM | OD450 nm at 0.8 nM | OD450 nm at 4 nM | OD450 nm at 20 nM | OD450 nm at 100 nM
B11 | 0.022 nM | 3.05 OD | 0.27 OD450 nm | 0.72 OD450 nm | 1.83 OD450 nm | 2.72 OD450 nm | 2.96 OD450 nm | 2.99 OD450 nm | 3.05 OD450 nm | 3.02 OD450 nm
B12 | 0.017 nM | 3.04 OD | 0.26 OD450 nm | 0.71 OD450 nm | 2.02 OD450 nm | 2.86 OD450 nm | 2.96 OD450 nm | 2.99 OD450 nm | 3.01 OD450 nm | 3.04 OD450 nm
B13 | 0.041 nM | 3.05 OD | 0.16 OD450 nm | 0.53 OD450 nm | 1.31 OD450 nm | 2.48 OD450 nm | 2.88 OD450 nm | 2.96 OD450 nm | 3 OD450 nm | 3.05 OD450 nm
B14 | 0.027 nM | 3.03 OD | 0.24 OD450 nm | 0.66 OD450 nm | 1.67 OD450 nm | 2.64 OD450 nm | 2.85 OD450 nm | 2.97 OD450 nm | 3.02 OD450 nm | 3.03 OD450 nm

Molecular target: T4, Cynomolgus monkey CD3e/g protein (cynomolgus monkey)
T4 construct: also called cyno CD3e/g; cCD3e/g
Test: ELISA, coated cyno CD3e/g
Procedure: as §1

Binder | EC50 | OD450 nm at 0.000853 nM | OD450 nm at 0.0043 nM | OD450 nm at 0.02 nM | OD450 nm at 0.11 nM | OD450 nm at 0.53 nM | OD450 nm at 2.67 nM | OD450 nm at 13.3 nM | OD450 nm at 66.7 nM
B11 | 0.33 nM | 0.164 OD450 nm | 0.152 OD450 nm | 0.17 OD450 nm | 0.64 OD450 nm | 2.43 OD450 nm | 3.45 OD450 nm | 3.5 OD450 nm | 3.49 OD450 nm
B12 | 0.26 nM | 0.0902 OD450 nm | 0.128 OD450 nm | 0.22 OD450 nm | 0.73 OD450 nm | 2.7 OD450 nm | 3.45 OD450 nm | 3.47 OD450 nm | 3.49 OD450 nm
B13 | 0.44 nM | 0.0893 OD450 nm | 0.111 OD450 nm | 0.16 OD450 nm | 0.48 OD450 nm | 2.03 OD450 nm | 3.32 OD450 nm | 3.48 OD450 nm | 3.42 OD450 nm
B14 | 0.32 nM | 0.0755 OD450 nm | 0.126 OD450 nm | 0.19 OD450 nm | 0.63 OD450 nm | 2.44 OD450 nm | 3.41 OD450 nm | 3.54 OD450 nm | 3.46 OD450 nm
